Here are results for one molecule from CN111690058A (SANYOU BIO INC; SHANGHAI ZJ BIO TECH CO LTD, dated 2020).

For assay [1], the target named is T1, S蛋白RBD-His (319Arg-532Asn) (2019-nCoV (SARS-CoV-2), UniProt P0DTC2 319-532).
The target of assay [2] is T1, S蛋白RBD-His (319Arg-532Asn). Description: BLI (Fortebio), RBD-His on Anti-Penta-HIS sensor, antibody in solution. (BLI is a label-free optical method that tracks binding on a fibre tip over time.)

B1: 候选抗体P16-A3 (全长人IgG1, κ轻链) (antibody, V domains shown)
VH: QVQLVESGGGVVQPGRSLRLSCAASGFTFSSYGMHWVRQAPGKGLEWVAVISYDGSNKYYADSVKGRFTISRDNSKNTLYLQMNSLRAEDTAVYYCARAYSSSWLLQSFYYYGMDVWGQGTTVTVSS
VL: NIQLTQSPVSLSASVGDRVTLTCRASQGIGYSLVWYQKKPGTAPKLLIFDASTLQSGVPSRFSGSGSGTDFTLTISSLQPEDSATYYCQQVIHYPLTFGGGTKVEIK
As for B1, in assay [1], the IC50 (as a rule, the concentration needed to halve the response being measured) stood at 7.7 nM. Further, in assay [2], the dissociation constant Kd (usually the free concentration of one partner at which half of the binding sites on the other are occupied at equilibrium, for simple one-to-one binding) was found to be 0.415 nM; the off-rate (koff) – broadly, the first-order rate constant of dissociation – was found to be 7.17e-05 s⁻¹; the kon – broadly, the second-order rate constant of association – came out at 173000 M⁻¹ s⁻¹.
